A short description of data set [1]: Phase 1 single and multiple ascending dose trial of inhaled (nebulized) CA28 in healthy volunteers. The format is in vivo, human. As for the experimental part:
In the single ascending dose part of the trial, 16 subjects were enrolled in four cohorts of four subjects each.
Four subjects were enrolled in the first cohort of the multiple ascending dose part of the trial. These subjects were to receive 14 consecutive days of treatment with a 60 mg/day dose of the drug. […] The trial was paused and subsequently resumed, with subjects receiving 30 mg/day. […] The trial was then terminated.

Data set [2] deals with T1, complement component C3 (human, UniProt P01024 23-1663). Kind of data set: cell-based or functional assay.
Data set [3] has as its target T1, complement component C3. Kind of data set: cell-based or functional assay. The source holds these as a separate data set.

With `CC[C@H](C)[C@H](NC(C)=O)C(=O)N[C@H]1CSSC[C@@H](C(=O)N[C@H](C(N)=O)[C@@H](C)O)NC(=O)[C@H](CCCNC(=N)N)NC(=O)[C@H](Cc2cnc[nH]2)NC(=O)[C@H](C)NC(=O)CNC(=O)[C@H](Cc2c[nH]c3ccccc23)NC(=O)[C@H](CC(=O)O)NC(=O)[C@H](CCC(N)=O)NC(=O)[C@H](Cc2cn(C)c3ccccc23)NC(=O)[C@H](C(C)C)NC1=O` [CA28], the adverse event result in data set [1] (inhaled 30 mg/day, after 10 days) was “Another subject developed signs and symptoms consistent with a potential bacterial infection”; in data set [1] (inhaled 60 mg/day, after nine days), “one subject developed signs and symptoms consistent with a potential bacterial infection”.

B1: CA28-AEEAc-Lys(mPEG40K-hexanoyl) (peptide)
peptide: ICVWQDWGAHRCTK
modifications: not fully specified; N-terminal acetyl; (1Me)Trp at position 4; disulfide Cys2-Cys12; AEEAc between Thr13 and Lys; 40 kD mPEG (NOF ME-400HS) on the Lys15 side chain; C-terminal amide
Take B1: the “IC50 (read off the curve) (classical pathway complement activation, C3b deposition ELISA with human plasma)” value with complement component C3 [2] is about 700 nM.

B2: CA28-AEEAc-Lys(mPEG40K-carbonyl) (peptide)
peptide: ICVWQDWGAHRCTK
modifications: not fully specified; N-terminal acetyl; (1Me)Trp at position 4; disulfide Cys2-Cys12; AEEAc between Thr13 and Lys; 40 kD mPEG (NOF ME-400TS) on the Lys15 side chain; C-terminal amide
As for B2, the “IC50 (read off the curve) (classical pathway complement activation, C3b deposition ELISA with human plasma)” value with complement component C3 [2] is about 700 nM.

B3: CA28-AEEAc-Lys(mPEG40K-succinyl) (peptide)
peptide: ICVWQDWGAHRCTK
modifications: not fully specified; N-terminal acetyl; (1Me)Trp at position 4; disulfide Cys2-Cys12; AEEAc between Thr13 and Lys; 40 kD mPEG (NOF ME-400CS) on the Lys15 side chain; C-terminal amide
As for B3, the “IC50 (read off the curve) (classical pathway complement activation, C3b deposition ELISA with human plasma)” value with complement component C3 [2] was about 700 nM.

B4: CA28-AEEAc-Lys-(PEG40k) (peptide)
peptide: ICVWQDWGAHRCTK
modifications: not fully specified; N-terminal acetyl; (1Me)Trp at position 4; disulfide Cys2-Cys12; AEEAc between Thr13 and Lys; linear monofunctional 40 kD PEG (NOF ME-400GS) on the Lys side chain; C-terminal amide
Turning to B4, the “IC50 (read off the curve) (classical pathway complement activation, C3b deposition ELISA with human plasma)” value with complement component C3 [2] was about 700 nM.

B5: CA28-2TS-BF (peptide)
peptide: ICVWQDWGAHRCTK
modifications: not fully specified; N-terminal acetyl; (1Me)Trp at position 4; disulfide Cys2-Cys12; AEEAc between Thr13 and Lys; Lys side chain linked by a carbamate to one end of a bifunctional linear 40 kD PEG of the TS type; C-terminal amide
B5: the “IC50 (read off the curve) (alternative pathway complement activation, LPS-coated plate, C3b deposition ELISA) [B]” value with complement component C3 [3] was about 400 nM.

The values above are taken from patent US20260183365A1, “COMBINATION THERAPY FOR C3 INHIBITION” (Apellis Pharmaceuticals, Inc., priority 2016, published 2026).
